In US20230392126A1, “TISSUE ORGANOIDS” (priority 2016, published 2023):

How the values were obtained:
human epidermal cells = experiment: Secretion of GLP1 in culture medium by ELISA (human epidermal cells); type: cell-based; conditions: engineered human epidermal cells, doxycycline
Excerpt: To examine CRISPR-mediated genome editing in human epidermal cells, vectors encoding two gRNAs targeting human AAVS1 (adeno-associated virus integration site 1) locus, and an AAVS1-targeting vector (FIG. 16A) that harbors a tetracycline-inducible expression cassette encoding the GLP-1 and IgG-Fc fragment fusion protein were used. […] Clones were isolated and correct integration confirmed by southern blotting analysis (FIG. 13D).

[1] = Stability and tolerance of transplanted skin organoids in immunocompetent hosts; type: in vivo, mouse; conditions: CD1 hosts
Excerpt: For grafting with skin organoids, CD1 (isogenic mouse keratinocyte transplantation) males or Nude (human keratinocyte transplantation) females with the ages of 6-8 weeks were anesthetized. A silicone chamber bottom with the interior diameter of 0.8 cm and the exterior diameter of 1.5 cm was implanted on its shaved dorsal mid-line skin, which was used to hold the skin graft. A chamber cap was installed to seal the chamber right after a piece of graft was implanted. About one week later, the chamber cap was removed to expose the graft to air. A single dose of 0.2 mg α-CD4 (GK1.5) and 0.2 mg α-CD8 (2.43.1) antibodies was administered intraperitoneally for skin grafting.
Optical imaging was performed in the integrated small animal imaging research resource (iSAIRR) at the University of Chicago. Bioluminescence images were acquired on an IVIS Spectrum (Caliper Life Sciences®, Alameda, CA) after animal was injected with luciferin (100 mg/kg). […]
Grafted cells in immunocompetent hosts readily expressed exogenous genes, such as Luciferase and Histone H2B-RFP (FIG. 1B-D), which were transduced to the cells with lentivirus. […] Importantly, the tissue organoid with expression of exogenous gene, such as Luciferase and H2B-RFP, was stable in vivo for more than 5 months in immunocompetent hosts, as determined by intravital bioluminescence imaging and tissue histology. […]

[2] = test system: mouse epidermal stem cells; experiment: Cell proliferation and differentiation of engineered mouse epidermal cells in vitro (cell cycle FACS, calcium shift western blot); type: cell-based
Experimental: Primary human neonatal epidermal keratinocytes were obtained from Thermo Fischer® (C0015C), and cultured with Epilife® medium (Thermo Fischer, M-EPICF-500) with manufacturer's recommended procedures. Calcium shift was performed to induce differentiation of primary keratinocytes by increasing the calcium concentration in culture media to 1.5 mM.
Propidium iodide (PI) staining followed by flow cytometry were used to determine the effect of cell cycle profiles. Mouse and human epidermal cells were cultured in two 6 cm cell culture dish for 24 hours, respectively. Cells were trypsinized, and 1×10^5 cells from each dish were collected, followed by one PBS wash. […] After staining, the cells were analyzed immediately using flow cytometer BD FACSCanto™ II (BD Biosciences, San Jose, CA) with an excitation wavelength at 488 nm and emission at 585 nm. DNA content and histograms of cell cycle distribution were analyzed using FlowJo™ software, version 10 (FLOWJO LLC, OR).
Western blotting was performed as described previously (Blanpain et al.). […] Visualization and quantification was carried out with the LI-COR Odyssey® scanner and software (LI-COR Biosciences).
Propidium iodide (PI) staining followed by flow cytometry were used to determine the effect of cell cycle profiles. […] DNA content and histograms of cell cycle distribution were analyzed using FlowJo™ software, version 10 (FLOWJO LLC, OR). […]

Substance: GLP1
- GLP1 production (human epidermal cells): strong GLP1 production upon dose-dependent stimulation with doxycycline
- rejection of skin grafts after transplantation [1]: No significant rejection of the skin grafts has been observed
- effect of expression on cell proliferation / differentiation in vitro [2]: did not significantly change cell proliferation
